Experimental data from the supplement of paper PMC10065799, “High-throughput profiling of sequence recognition by tyrosine kinases and SH2 domains using bacterial peptide display” (eLife, 2023).

Legend:
c-Src SH2 = assay: SH2 binding enrichment of the phosphorylated peptide, bacterial display (enrichment ratio); higher = better substrate or ligand; peptides without Tyr show the background
SHP2-C SH2 = assay: as above
Grb2 SH2 = Grb2 SH2 (UniProt P62993); assay: as above
Fyn = Fyn (UniProt P06241); assay: phosphorylation enrichment, bacterial display (enrichment ratio); higher = better substrate or ligand; peptides without Tyr show the background
Fyn, sequence (P06241 whole entry, looked up): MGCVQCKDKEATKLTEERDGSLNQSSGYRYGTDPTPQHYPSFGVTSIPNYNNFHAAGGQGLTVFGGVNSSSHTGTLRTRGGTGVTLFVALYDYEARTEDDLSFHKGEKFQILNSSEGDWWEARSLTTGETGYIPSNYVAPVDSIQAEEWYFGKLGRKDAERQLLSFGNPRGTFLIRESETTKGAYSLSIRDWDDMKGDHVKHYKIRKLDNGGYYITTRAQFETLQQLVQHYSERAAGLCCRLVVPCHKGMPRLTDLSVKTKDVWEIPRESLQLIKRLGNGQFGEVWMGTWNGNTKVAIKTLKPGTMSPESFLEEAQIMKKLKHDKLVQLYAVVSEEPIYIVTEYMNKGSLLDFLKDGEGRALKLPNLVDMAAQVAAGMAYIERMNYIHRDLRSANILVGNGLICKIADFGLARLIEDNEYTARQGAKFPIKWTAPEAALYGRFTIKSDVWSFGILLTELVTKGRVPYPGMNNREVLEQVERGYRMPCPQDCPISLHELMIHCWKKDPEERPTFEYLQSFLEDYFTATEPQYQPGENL

c-Src = assay: as above
MERTK = MERTK (UniProt Q12866); assay: as above
Fes = Fes (UniProt P07332); assay: as above
Jak2 = Jak2 (UniProt O60674); assay: as above
Jak2, sequence (O60674 whole entry, looked up): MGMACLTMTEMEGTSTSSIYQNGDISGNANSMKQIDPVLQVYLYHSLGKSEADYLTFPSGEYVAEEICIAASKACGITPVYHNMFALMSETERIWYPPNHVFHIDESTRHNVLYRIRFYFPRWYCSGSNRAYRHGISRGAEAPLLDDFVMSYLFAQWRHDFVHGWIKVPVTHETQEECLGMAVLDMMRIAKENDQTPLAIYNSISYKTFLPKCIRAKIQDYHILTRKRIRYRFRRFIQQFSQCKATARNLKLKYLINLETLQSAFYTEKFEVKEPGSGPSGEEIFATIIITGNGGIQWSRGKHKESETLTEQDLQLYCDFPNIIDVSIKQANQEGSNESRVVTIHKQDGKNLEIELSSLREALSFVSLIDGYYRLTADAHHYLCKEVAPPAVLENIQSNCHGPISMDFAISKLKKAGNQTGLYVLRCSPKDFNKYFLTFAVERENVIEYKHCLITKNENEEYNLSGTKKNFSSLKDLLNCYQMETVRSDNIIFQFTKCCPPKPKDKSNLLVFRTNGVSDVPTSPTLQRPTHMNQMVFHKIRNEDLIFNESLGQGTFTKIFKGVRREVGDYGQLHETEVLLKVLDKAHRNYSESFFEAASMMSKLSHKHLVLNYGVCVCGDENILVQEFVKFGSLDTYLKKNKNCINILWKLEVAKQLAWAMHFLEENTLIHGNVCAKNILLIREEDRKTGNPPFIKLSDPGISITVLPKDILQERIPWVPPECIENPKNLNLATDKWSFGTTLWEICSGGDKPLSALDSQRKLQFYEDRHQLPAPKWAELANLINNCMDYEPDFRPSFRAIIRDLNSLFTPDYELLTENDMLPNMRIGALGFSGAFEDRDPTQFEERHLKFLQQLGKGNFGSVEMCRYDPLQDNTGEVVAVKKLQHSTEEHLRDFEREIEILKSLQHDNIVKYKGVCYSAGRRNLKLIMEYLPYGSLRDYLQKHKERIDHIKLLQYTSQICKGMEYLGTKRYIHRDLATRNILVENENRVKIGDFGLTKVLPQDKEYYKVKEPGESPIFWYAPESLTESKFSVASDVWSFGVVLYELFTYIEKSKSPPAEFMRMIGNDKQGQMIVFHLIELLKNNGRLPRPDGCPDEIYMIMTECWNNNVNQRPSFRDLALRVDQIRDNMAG

c-Abl (mouse) = assay: as above
EPHB2 = EPHB2 (UniProt P29323); assay: as above
EPHB2, sequence (P29323 whole entry, looked up): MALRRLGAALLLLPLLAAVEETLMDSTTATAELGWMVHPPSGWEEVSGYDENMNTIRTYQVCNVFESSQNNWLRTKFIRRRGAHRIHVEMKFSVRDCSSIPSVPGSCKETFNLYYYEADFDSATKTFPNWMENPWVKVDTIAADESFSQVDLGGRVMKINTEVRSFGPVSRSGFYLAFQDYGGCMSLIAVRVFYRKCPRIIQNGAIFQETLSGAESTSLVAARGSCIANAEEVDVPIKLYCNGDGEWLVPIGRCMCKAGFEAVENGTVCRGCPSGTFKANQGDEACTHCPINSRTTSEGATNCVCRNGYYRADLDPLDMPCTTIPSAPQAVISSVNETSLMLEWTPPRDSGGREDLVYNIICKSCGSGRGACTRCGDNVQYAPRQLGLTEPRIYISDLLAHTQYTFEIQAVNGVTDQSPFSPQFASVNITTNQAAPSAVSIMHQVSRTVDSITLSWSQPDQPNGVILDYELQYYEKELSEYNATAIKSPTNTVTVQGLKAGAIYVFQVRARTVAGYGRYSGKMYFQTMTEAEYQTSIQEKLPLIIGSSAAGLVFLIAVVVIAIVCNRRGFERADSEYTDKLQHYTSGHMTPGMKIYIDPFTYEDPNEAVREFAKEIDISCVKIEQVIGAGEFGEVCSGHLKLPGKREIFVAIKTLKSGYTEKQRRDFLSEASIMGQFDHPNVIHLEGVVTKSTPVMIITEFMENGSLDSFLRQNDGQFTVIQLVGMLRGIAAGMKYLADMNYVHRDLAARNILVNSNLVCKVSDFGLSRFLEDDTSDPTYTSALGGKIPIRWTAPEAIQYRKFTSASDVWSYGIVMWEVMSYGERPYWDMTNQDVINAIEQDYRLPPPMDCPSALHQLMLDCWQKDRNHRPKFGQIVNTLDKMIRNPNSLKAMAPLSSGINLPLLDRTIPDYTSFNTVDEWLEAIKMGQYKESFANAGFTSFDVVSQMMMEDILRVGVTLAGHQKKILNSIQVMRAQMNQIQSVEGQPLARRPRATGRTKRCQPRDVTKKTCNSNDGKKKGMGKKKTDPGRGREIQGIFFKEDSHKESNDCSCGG

FGFR3 = FGFR3 (UniProt P22607); assay: as above
FGFR3, sequence (P22607 whole entry, looked up): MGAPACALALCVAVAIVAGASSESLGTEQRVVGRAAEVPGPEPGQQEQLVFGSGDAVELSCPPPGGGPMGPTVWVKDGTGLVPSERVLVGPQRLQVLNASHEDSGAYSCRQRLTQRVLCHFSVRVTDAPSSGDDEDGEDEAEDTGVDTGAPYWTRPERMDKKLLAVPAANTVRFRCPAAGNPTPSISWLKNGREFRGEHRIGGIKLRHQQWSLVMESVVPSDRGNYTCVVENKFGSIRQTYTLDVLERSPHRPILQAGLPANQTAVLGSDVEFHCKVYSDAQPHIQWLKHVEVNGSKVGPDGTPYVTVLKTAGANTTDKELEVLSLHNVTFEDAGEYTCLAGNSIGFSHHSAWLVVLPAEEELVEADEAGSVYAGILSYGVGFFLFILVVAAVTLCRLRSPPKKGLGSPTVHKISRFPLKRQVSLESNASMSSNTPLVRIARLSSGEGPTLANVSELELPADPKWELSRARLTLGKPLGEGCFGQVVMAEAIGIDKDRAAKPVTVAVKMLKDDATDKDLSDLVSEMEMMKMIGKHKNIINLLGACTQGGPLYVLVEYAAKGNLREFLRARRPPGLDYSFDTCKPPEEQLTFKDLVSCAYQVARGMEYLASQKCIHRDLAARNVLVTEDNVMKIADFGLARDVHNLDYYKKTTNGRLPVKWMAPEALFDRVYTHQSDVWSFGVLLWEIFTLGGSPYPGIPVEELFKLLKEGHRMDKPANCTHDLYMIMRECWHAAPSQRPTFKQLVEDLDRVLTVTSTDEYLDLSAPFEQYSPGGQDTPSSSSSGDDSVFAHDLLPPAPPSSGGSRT

FGFR1 = FGFR1 (UniProt P11362); assay: as above
Hck = Hck (UniProt P08631); assay: as above
Hck, sequence (P08631 whole entry, looked up): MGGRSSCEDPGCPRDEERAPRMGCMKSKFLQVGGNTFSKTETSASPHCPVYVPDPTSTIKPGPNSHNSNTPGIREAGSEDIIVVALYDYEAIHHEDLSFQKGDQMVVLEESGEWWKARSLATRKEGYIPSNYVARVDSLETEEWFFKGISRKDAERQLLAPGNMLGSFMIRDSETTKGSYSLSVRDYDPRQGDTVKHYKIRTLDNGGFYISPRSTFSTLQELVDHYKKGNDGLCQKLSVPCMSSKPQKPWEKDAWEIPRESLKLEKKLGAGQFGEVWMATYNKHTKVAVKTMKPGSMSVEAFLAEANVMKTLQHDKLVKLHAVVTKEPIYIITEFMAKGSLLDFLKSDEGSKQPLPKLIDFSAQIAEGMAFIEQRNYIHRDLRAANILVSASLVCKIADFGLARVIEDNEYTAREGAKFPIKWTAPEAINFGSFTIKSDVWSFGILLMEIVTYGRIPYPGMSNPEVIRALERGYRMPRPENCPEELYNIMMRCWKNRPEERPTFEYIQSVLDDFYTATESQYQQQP

Fer (mouse) = assay: as above
AncSZ = assay: as above
EPHB1 = EPHB1 (UniProt P54762); assay: as above
EPHB1, sequence (P54762 whole entry, looked up, the tested form may be a part): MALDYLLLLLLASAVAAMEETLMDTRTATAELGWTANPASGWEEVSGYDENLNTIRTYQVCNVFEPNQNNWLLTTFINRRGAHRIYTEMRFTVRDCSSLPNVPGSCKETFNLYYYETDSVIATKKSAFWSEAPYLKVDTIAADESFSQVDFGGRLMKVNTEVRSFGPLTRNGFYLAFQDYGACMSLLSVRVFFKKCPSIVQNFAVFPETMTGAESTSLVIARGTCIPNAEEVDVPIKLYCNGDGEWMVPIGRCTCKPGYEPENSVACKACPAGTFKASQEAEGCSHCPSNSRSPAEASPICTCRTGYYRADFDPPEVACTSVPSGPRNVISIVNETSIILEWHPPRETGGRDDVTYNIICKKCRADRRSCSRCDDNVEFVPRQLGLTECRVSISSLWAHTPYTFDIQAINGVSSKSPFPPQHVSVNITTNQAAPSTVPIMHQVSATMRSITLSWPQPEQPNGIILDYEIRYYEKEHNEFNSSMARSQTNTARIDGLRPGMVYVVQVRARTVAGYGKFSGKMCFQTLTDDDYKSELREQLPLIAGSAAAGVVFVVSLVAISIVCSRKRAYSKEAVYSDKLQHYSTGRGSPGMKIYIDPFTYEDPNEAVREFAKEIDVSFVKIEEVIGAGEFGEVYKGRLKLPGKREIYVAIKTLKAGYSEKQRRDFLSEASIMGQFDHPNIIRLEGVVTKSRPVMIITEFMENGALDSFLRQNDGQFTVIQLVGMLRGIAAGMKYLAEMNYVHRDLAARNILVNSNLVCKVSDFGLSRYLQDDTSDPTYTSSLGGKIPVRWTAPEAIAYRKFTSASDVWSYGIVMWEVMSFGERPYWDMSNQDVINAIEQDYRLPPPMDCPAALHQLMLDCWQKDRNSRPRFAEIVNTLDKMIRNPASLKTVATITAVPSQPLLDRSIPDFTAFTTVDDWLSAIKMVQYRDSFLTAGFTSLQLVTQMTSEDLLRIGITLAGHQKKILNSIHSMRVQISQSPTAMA
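Wherever SH2 binding enrichment of the phosphorylated peptide, bacterial display is given: peptide library displayed on the E. coli surface as eCPX fusions, selected cells deep-sequenced, score is each peptide's frequency after selection divided by its frequency in the input.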
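Wherever phosphorylation enrichment, bacterial display is given: 11-residue human phosphosite peptides and single-mutation variants displayed on the E. coli surface, counted by deep sequencing, each peptide's frequency after selection divided by its frequency in the unselected input library; frequency after pTyr selection over input frequency; kinase dosed for 20-30% of maximal phosphorylation in three min.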

SH2 binding enrichment (c-Src SH2) | SH2 binding enrichment (SHP2-C SH2) | SH2 binding enrichment (Grb2 SH2) | Sequence | phosphorylation enrichment (Fyn) | phosphorylation enrichment (c-Src) | phosphorylation enrichment (MERTK) | phosphorylation enrichment (Fes) | phosphorylation enrichment (Jak2) | phosphorylation enrichment (c-Abl (mouse)) | phosphorylation enrichment (EPHB2) | phosphorylation enrichment (FGFR3) | phosphorylation enrichment (FGFR1) | phosphorylation enrichment (Hck) | phosphorylation enrichment (Fer (mouse)) | phosphorylation enrichment (AncSZ) | phosphorylation enrichment (EPHB1)
0.434 | 0.643 | 0.684 | HPWPRYTTRAP [FNDC1_Y1281_Q1280R] | 0.796 | 0.654 | 0.605 | 0.907 | 0.518 | 0.646 | 0.713 | 0.619 | 0.515 | 0.849 | 0.449 | 0.802 | 0.509
0.638 | 0.86 | 0.962 | SMGMKYLEEKN [ZAP70_Y451] | 0.7 | 0.434 | 0.383 | 0.879 | 0.727 | 0.644 | 0.463 | 0.506 | 0.493 | 0.398 | 0.454 | 0.717 | 0.518
0.456 | 0.672 | 0.998 | HESEIYGKVCF [CSRP3_Y57_C58G_YF] | 6.51 | 4.61 | 1.24 | 1.71 | 1.19 | 1.34 | 0.911 | 0.939 | 0.813 | 3.95 | 6.89 | 1.58 | 0.885
0.75 | 0.571 | 0.765 | SFGENYDNSKS [MAN1B1_Y60] | 0.438 | 0.464 | 0.567 | 0.958 | 0.89 | 0.833 | 0.461 | 0.548 | 0.452 | 0.408 | 0.444 | 0.766 | 0.434
0.455 | 0.851 | 0.703 | FFIMMYTGSSV [DNAJC13_Y1131_N1135S] | 0.316 | 0.342 | 0.325 | 1.07 | 0.824 | 0.743 | 0.468 | 0.533 | 0.366 | 0.438 | 0.456 | 0.97 | 0.62
0.528 | 0.685 | 0.82 | DKMEAYNIDET [TEKT4_Y210] | 0.568 | 0.492 | 0.459 | 1.29 | 1.04 | 0.755 | 0.618 | 0.83 | 0.56 | 0.583 | 0.584 | 1.32 | 0.604
3.2 | 0.645 | 0.886 | IVAREYYSEAD [CAMK2A_Y106] | 0.474 | 0.548 | 0.455 | 1.2 | 1.01 | 0.664 | 0.552 | 0.81 | 0.618 | 0.557 | 0.586 | 1.03 | 0.557
0.615 | 0.709 | 0.915 | STKELYEKFMI | 0.724 | 1.01 | 0.872 | 0.857 | 0.619 | 0.6 | 0.414 | 0.492 | 0.409 | 1.01 | 6.97 | 0.725 | 0.411
0.985 | 0.557 | 0.769 | YLENYYDLEKD [MMP3_Y42_K45E] | 4.51 | 2.29 | 0.752 | 1.47 | 1.15 | 0.957 | 3.24 | 5.26 | 7.06 | 1.63 | 0.781 | 1.76 | 5.81
0.404 | 0.573 | 0.928 | SHLEDYPFNAE [AKR1B10_Y310] | 0.517 | 0.396 | 0.413 | 1.14 | 1.03 | 0.713 | 0.511 | 0.771 | 0.489 | 0.504 | 0.594 | 1.01 | 0.568
0.395 | 0.612 | 0.768 | NSRFTCKLEVK [USH2A_Y3747_Y3747C_YF] | 0.378 | 0.504 | 0.449 | 1.66 | 1.79 | 1.48 | 0.618 | 1 | 0.563 | 0.508 | 0.533 | 1.45 | 0.629
0.422 | 0.344 | 0.77 | HESEIYGKVCY [CSRP3_Y57_C58G] | 8.66 | 6.37 | 1.08 | 1.32 | 1.31 | 2.81 | 0.968 | 0.808 | 0.612 | 5.92 | 8.63 | 1.36 | 0.828
0.448 | 0.549 | 0.866 | AAFNRYDQERF [CDC73_Y293_YF] | 0.469 | 0.427 | 0.398 | 0.856 | 0.609 | 0.684 | 0.473 | 0.504 | 0.394 | 0.397 | 0.463 | 0.665 | 0.402
0.299 | 0.548 | 0.742 | GQSKGYRPKLF [SIPA1L3_Y1376_YF] | 0.363 | 0.412 | 0.389 | 0.837 | 0.37 | 0.448 | 0.324 | 0.419 | 0.364 | 0.395 | 0.342 | 0.433 | 0.319
1.1 | 1.21 | 1.32 | GHGRFYMKEAI [PGM1_Y66_D62H] | 0.407 | 0.36 | 0.305 | 0.754 | 0.662 | 0.536 | 0.418 | 0.59 | 0.384 | 0.404 | 0.405 | 0.684 | 0.342
7.14 | 0.701 | 0.671 | EESREYDRLYE [PIK3R1_Y463_K459E] | 0.751 | 0.714 | 0.465 | 1.44 | 1.45 | 1.02 | 0.7 | 1.19 | 0.708 | 0.865 | 0.641 | 1.42 | 0.761
0.529 | 0.565 | 0.842 | GRRNTCFASIA [ACADM_Y352_Y352C_YF] | 0.401 | 0.391 | 0.413 | 0.691 | 0.711 | 0.556 | 0.348 | 0.405 | 0.377 | 0.365 | 0.424 | 0.665 | 0.383
